The labels stand for the following.
B1: Azoarcus group I ribozyme (parent)
chain: GUGCCUUGCGCCGGGAAACCACGCAAGGGAUGGUGUCAAAUUCGGCGAAACCUAAGCGCCCGCCCGGGCGUAUGGCAACGCCGAGCCAAGCUUCGGCGCCUGCGCCGAUGAAGGUGUAGAGACUAGACGGCACCCACCUAAGGCAAACGCUAUGGUGAAGGCAUAGUCCAGGGAGUGGCGAAAGUCACACAAACCGG

This data set covers variants of B1. Nature of the data set: reverse-splicing fitness (ratio to wild type); higher = more active; in vitro selection; Mg2+ level not given. In short, it runs like this:
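An in vitro group I ribozyme library with randomized positions was T7-transcribed and gel-purified. In triplicate, 10 pmol RNA in EPPS pH 7.5 was reacted with 50 pmoles of a 30-nt RNA substrate for 1 h at 37 °C across several added MgCl2 levels (1–48 mM), then stopped with EDTA. Products were reverse transcribed from a substrate-complementary primer, PCR-amplified and sequenced (HiSeq 4000). Fitness is a variant's read proportion after selection over that before, normalised to wild type.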
As to A111G A145G C150A C169G U176A, the reverse-splicing fitness worked out at 0.0234.
The figure for A111G A145G C150A C169G U176G is 0.00564.
The figure for A111G A145G C150A C169G U176C is 0.0276; for A111G A145U C150G C169A U176G it is 0.00461; for A111G A145U C150G C169A U176C it is 0.00907.
With A111G A145U C150G C169A U176A, the reverse-splicing fitness turned out to be 0.00932.
The value for A111G A145U U176C was 0.809; that for A111G A145U U176A was 0.755.
The value for A111G A145U U176G was 0.524.
As for A111G C150G C169A U176G, the reverse-splicing fitness was 0.00557.
The figure for A111G C150G C169A U176C is 0.0111; for A111G C150G C169A U176A it is 0.0101.
The value for A111G A145G C150U C169G U176C was 0.0431; that for A111G A145G C150U C169G U176G was 0.00595; that for A111G A145G C150U C169G U176A was 0.0289.
The figure for A111G A145U is 0.957; for A111G A145U C150G C169A it is 0.0108; for A111G A145U C150G C169G it is 0.0152.
As to A111G A145U C150G C169U, the reverse-splicing fitness was 0.0229.
The value for A111G C150G was 0.363; that for A111G C150A was 0.462; that for A111G C150U was 0.905.
As to A111G A145G C150U U176C, the reverse-splicing fitness came out at 0.713.
The figure for A111G A145G C150U U176A is 0.72; for A111G A145G C150U U176G it is 0.25.
Consider A111G A145G C169A U176A, for which the reverse-splicing fitness was found to be 0.0226.
The value for A111G A145G C169A U176G was 0.00526; that for A111G A145G C169A U176C was 0.036.
The value for A111G A145G C150U C169A U176A was 0.0193; that for A111G A145G C150U C169A U176C was 0.0252; that for A111G A145G C150U C169A U176G was 0.00505.
The value for A111G C150A C169U was 0.0262; that for A111G C150A C169G was 0.0174; that for A111G C150A C169A was 0.0135.
With A111G A145G C150A U176C, the reverse-splicing fitness stood at 0.32.
The figure for A111G A145G C150A U176A is 0.297; for A111G A145G C150A U176G it is 0.109.
The figure for A111G A145G C150G C169U U176G is 0.00609; for A111G A145G C150G C169U U176C it is 0.0172.
The value for A111G A145G C150G C169U U176A was 0.011; that for A111G C150G C169G U176C was 0.00463.
Take A111G C150G C169G U176A: the reverse-splicing fitness was 0.00723.
The figure for A111G C150G C169G U176G is 0.00539.
For the variant A111G C150U C169G U176C, the reverse-splicing fitness was determined as 0.0386.
The value for A111G C150U C169G U176G was 0.00579; that for A111G C150U C169G U176A was 0.0243; that for A111G A145G C150A C169G was 0.0238.
In the case of A111G A145G C150A C169U, the reverse-splicing fitness was 0.0371.
Take A111G A145G C150A C169A: the reverse-splicing fitness worked out at 0.0138.
For the variant A111G A145G C150G C169G U176C, the reverse-splicing fitness was 0.00813.
For the variant A111G A145G C150G C169G U176A, the reverse-splicing fitness was found to be 0.00939.
The figure for A111G A145G C150G C169G U176G is 0.00506.
Take A111G A145G C150G: the reverse-splicing fitness was 0.364.
The value for A111G A145G C150U was 0.941; that for A111G A145U C150U C169U was 0.132.
The figure for A111G A145U C150U C169G is 0.0749.
The value for A111G A145U C150U C169A was 0.0341; that for A111G C150A C169A U176A was 0.0171; that for A111G C150A C169A U176G was 0.00678.
In the case of A111G C150A C169A U176C, the reverse-splicing fitness came to 0.0177.
The figure for A111G A145G U176A is 0.751; for A111G A145G U176C it is 0.779; for A111G A145G U176G it is 0.333.
The value for A111G A145U C150U C169U U176A was 0.0375; that for A111G A145U C150U C169U U176G was 0.00691.
The figure for A111G A145U C150U C169U U176C is 0.056; for A111G A145U C150A C169A U176A it is 0.0121.
For A111G A145U C150A C169A U176C, the reverse-splicing fitness was 0.00843.
As for A111G A145U C150A C169A U176G, the reverse-splicing fitness was 0.00565.
The value for A111G A145G C169U U176A was 0.0478.
The figure for A111G A145G C169U U176C is 0.0655; for A111G A145G C169U U176G it is 0.00661; for A111G C150A C169G U176G it is 0.00767.
The figure for A111G C150A C169G U176A is 0.0252; for A111G C150A C169G U176C it is 0.0218; for A111G A145U C150U U176C it is 0.697.
Regarding A111G A145U C150U U176A, the reverse-splicing fitness came out at 0.677.
On to A111G A145U C150U U176G, for which the reverse-splicing fitness was found to be 0.317.
The figure for A111G A145G C150U C169U is 0.168.
The figure for A111G A145G C150U C169A is 0.0452; for A111G A145G C150U C169G it is 0.101; for A111G A145U C169A U176C it is 0.0203.
The figure for A111G A145U C169A U176A is 0.0114; for A111G A145U C169A U176G it is 0.00483.

Source of the values: the RNAGym collection of RNA variant scans (doi:10.1093/molbev/msab373).
